Measured values from article PMC3657613 (Nature chemical biology, 2012).

Assays:
[1] = biological target: MC4R Δ1–24 (Homo sapiens, UniProt P32245); assay: MC4R activity, cAMP-responsive luciferase reporter in transfected HEK293 cells; assay type: cell-based; conditions: for stimulation of MC4R Δ1–24 by peptide (efficacy): compared with constitutive activity of wild-type MC4R, normalized to membrane expression, triplicate, Fig. 2a
[2] = test system: wild-type MC4R; assay: as above; assay type: cell-based, human; conditions: constitutive activity; Fig. 1f

Chain of MC4R Δ1–24 (P32245 25-332, stated change not applied): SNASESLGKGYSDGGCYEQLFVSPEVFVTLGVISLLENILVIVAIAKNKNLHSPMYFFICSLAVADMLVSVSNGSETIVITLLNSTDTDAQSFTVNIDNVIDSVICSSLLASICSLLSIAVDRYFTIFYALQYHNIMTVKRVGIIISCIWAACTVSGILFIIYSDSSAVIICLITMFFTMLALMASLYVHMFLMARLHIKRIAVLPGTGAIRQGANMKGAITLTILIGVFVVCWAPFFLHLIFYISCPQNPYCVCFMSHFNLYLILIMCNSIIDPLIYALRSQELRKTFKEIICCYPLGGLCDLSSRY

Substance | stimulation of MC4R Δ1–24 by peptide (efficacy) [1] | also measured
Agouti-related protein (SSRRCVRLHESCLGQQVPCCDPCATCYCRFFNAFCYCRKLGTAMNPCSRT; UniProt O00253 83-132, looked up) [AgRP] |  | AgRP antagonism of MC4R 2–26 activation of MC4R Δ1–24 ([1]; Fig. 1f): inhibits the activation of MC4R Δ1–24 by MC4R 2–26 with similar potency as its inverse agonism of the wild-type receptor; effect on residual N terminal–independent constitutive activity of MC4R Δ1–24 ([1]; Supplementary Fig. 3a): inhibits the residual N terminal–independent constitutive activity; inhibition of αMSH-induced receptor activation ([1]; receptor with or without the N-terminal domain, Supplementary Fig. 3e): inhibits αMSH-induced receptor activation independent of the absence or presence of the N-terminal domain; AgRP inverse agonism of wild-type MC4R [2]: inverse agonism of the wild-type receptor
MC4R 8–26: smaller overlapping peptide spanning the MC4R N-terminal domain, residues 8–26 (GMHTSLHLWNRSSYRLHSN) | not significantly different from the constitutive activity of wild-type MC4R | 
MC4R 8–20: smaller overlapping peptide spanning the MC4R N-terminal domain, residues 8–20 (GMHTSLHLWNRSS) | not significantly different from the constitutive activity of wild-type MC4R | 
MC4R 14–19 S19A: MC4R 14–19 hexapeptide with S19A substitution (HLWNRA) | not significantly different from the constitutive activity of wild-type MC4R | 
MC4R 14–19 R18L: MC4R 14–19 hexapeptide with R18L substitution (HLWNLS) | markedly disrupted MC4R 14–19 efficacy | 
HLWNRS [MC4R 14–19] | not significantly different from the constitutive activity of wild-type MC4R | 
MC4R 2–19: smaller overlapping peptide spanning the MC4R N-terminal domain, residues 2–19 (VNSTHRGMHTSLHLWNRS) | not significantly different from the constitutive activity of wild-type MC4R | 
MC4R 14–19 H14A: MC4R 14–19 hexapeptide with H14A substitution (ALWNRS) | markedly disrupted MC4R 14–19 efficacy | 
MC4R 14–19 N17A: MC4R 14–19 hexapeptide with N17A substitution (HLWARS) | not significantly different from the constitutive activity of wild-type MC4R | 
MC4R 14–26: smaller overlapping peptide spanning the MC4R N-terminal domain, residues 14–26 (HLWNRSSYRLHSN) | not significantly different from the constitutive activity of wild-type MC4R | 
MC4R 14–19 W16A: MC4R 14–19 hexapeptide with W16A substitution (HLANRS) | markedly disrupted MC4R 14–19 efficacy | 
MC4R 14–19 L15A: MC4R 14–19 hexapeptide with L15A substitution (HAWNRS) | not significantly different from the constitutive activity of wild-type MC4R | 
